Each block holds one binder with its values, some of them ahead of it. Ends that are not written are not given here. * marks the point of attachment. FITC = O=C1OC2(c3ccc(O)cc3Oc3cc(O)ccc32)c2ccc(NC(=S)*)cc21; Ahx = NCCCCCC(=O)O
Key:
[1] = biological target: T1, Recombinant protein RHAMM-CT (truncated RHAMM, carboxy terminus containing the HA binding domain, amino acids … (UniProt Q00547 706-766)); test: SPR
T1 chain: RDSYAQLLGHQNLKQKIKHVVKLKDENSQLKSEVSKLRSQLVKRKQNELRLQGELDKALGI

[2] = biological target: T2, Recombinant protein RHAMM-CT (truncated RHAMM, carboxy terminus containing the HA binding domain, amino acids … (Mus musculus (Mouse), UniProt Q00547 706-766)); test: SPR screening (ProteON XPR36), RHAMM immobilised, peptide at 10 µM
T2 construct: Expressed in E. coli BL21 from pPAL7-RHAMM as eXact-tagged protein and purified on Profinity eXact resin (fluoride elution); M.W. 7.1 kDa, pI 10.1; also called recombinant RHAMM
T2 sequence: T1 chain
Description: ProteON XPR36 system was used for the selection and ranking of different tubulin derived peptides against RHAMM. For immobilization of RHAMM, the ProteON GLC sensor chip surfaces were activated by amine coupling using 100 mM EDAC and 24 mM sulfo-NHS. RHAMM (30 μg/mL in sodium bicarbonate buffer, pH 9.7) was injected at a flow a rate of 30 μl/min. A buffer sample was injected on a different sensor plate for use as a reference. Ethanolamine HCl (1M, pH 8.5) was then injected to deactivate any remaining surface groups. Peptides (10 μM in PBS-T, 2% DMSO) were injected to a RHAMM functionalized surface at 50 μL/min for 3 minutes followed by a 10 minute dissociation (i.e. injection of PBS-T buffer) period. The surfaces were regenerated using two injections of 30 μL of 1M NaCl prior to the injection of the next peptide. In all experiments, reference subtraction was performed using data obtained from reference plate (No RHAMM) and RHAMM functionalized plate.
After immobilization of RHAMM on the SPR sensor chip, injection of a series of tubulin derived peptides was carried out. Association of the peptides with RHAMM proceeded for 3 minutes and the dissociation in analyte free buffer was carried out for 10 minutes. […]

[3] = biological target: T2, Recombinant protein RHAMM-CT (truncated …); test: solid phase peptide binding assay (ELISA), immobilised RHAMM

Kd [1]: 30 nM
binding result [2]: binds
B1: peptide 14a (SEQ ID NO: 14), unmodified tubulin-derived peptide, sequence directly flanking beta-IIIa CTT (peptide)
peptide: FTEAESNMNDLV-NH2
notes: Synthetic 12-mer made on Rink amide MBHA resin

binding result [3]: binds
Binder: {FITC-Ahx}-EAFEDEEEEIDG-NH2 [peptide 12c (SEQ ID NO: 33), fluorescein-conjugated SEQ ID NO: 12]
